Test results: patent US6461832B2, “Method of detecting procarboxypeptidase A and carboxypeptidase A levels in biological fluids” (priority 1997, dated 2002)
“And” between values parts separate entries of the source, which are not always exact repeats. Equal entries are not always repeated.

B1: clostripain: protease added to activate PCPA in the biological fluid (protein, UniProt P09870 51-181; P09870 191-526, looked up)
Clostripain light chain: NKNQKVTIMYYCDADNNLEGSLLNDIEEMKTGYKDSPNLNLIALVDRSPRYSSDEKVLGEDFSDTRLYKIEHNKANRLDGKNEFPEISTTSKYEANMGDPEVLKKFIDYCKSNYEADKYVLIMANHGGGAR
Clostripain heavy chain: AICWDDSNLDKNGEADCLYMGEISDHLTEKQSVDLLAFDACLMGTAEVAYQYRPGNGGFSADTLVASSPVVWGPGFKYDKIFDRIKAGGGTNNEDDLTLGGKEQNFDPATITNEQLGALFVEEQRDSTHANGRYDQHLSFYDLKKAESVKRAIDNLAVNLSNENKKSEIEKLRGSGIHTDLMHYFDEYSEGEWVEYPYFDVYDLCEKINKSENFSSKTKDLASNAMNKLNEMIVYSFGDPSNNFKEGKNGLSIFLPNGDKKYSTYYTSTKIPHWTMQSWYNSIDTVKYGLNPYGKLSWCKDGQDPEINKVGNWFELLDSWFDKTNDVTGGVNHYQW

Legend:
carboxypeptidase A (CPA) = biological target: T1, carboxypeptidase A (CPA) (Homo sapiens, UniProt P15085); conditions: CPA specific inhibitor; reported values (Byers and Wolfenden 1973; Peterson et al. 1976); cited from earlier work
T1 sequence (P15085 111-419): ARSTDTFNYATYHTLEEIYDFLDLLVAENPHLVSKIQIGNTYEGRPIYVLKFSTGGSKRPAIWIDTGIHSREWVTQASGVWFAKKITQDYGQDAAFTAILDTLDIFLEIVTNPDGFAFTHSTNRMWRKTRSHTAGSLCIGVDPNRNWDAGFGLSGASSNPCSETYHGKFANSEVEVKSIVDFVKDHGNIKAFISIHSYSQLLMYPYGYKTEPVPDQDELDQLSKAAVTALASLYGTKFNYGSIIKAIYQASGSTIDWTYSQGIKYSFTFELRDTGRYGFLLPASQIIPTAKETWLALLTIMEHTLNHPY

[1] = test system: procarboxypeptidase A (PCPA) in human serum; test: Activation of PCPA in human serum with clostripain, total CPA activity; type: biochemical; conditions: sera from four healthy individuals and one with pancreatitis
Protocol: In the present invention, the protease clostripain was added to activate any PCPA in the biological fluid so that total CPA could be measured.
Approximately 3 mg (500 units) of lyophilized clostripain was dissolved in 1 ml of 10 mM Tris buffer (pH 8.0) along with CaCl2 and Cleland's Reagent at final concentrations of 20 mM and 1 mM, respectively. This mixture was incubated at room temperature for approximately 2 hours. This solution was then added to serum in concentrations ranging from approximately 50 to 500 units of clostripain/ml of serum. One unit was defined as the amount of clostripain which could cleave one micromole of Nα-benzoyl arginine ethyl ester (BAEE) in one minute. Determination of PCPA levels in blood donor samples was performed with 250 units of clostripain per ml serum. The standard serum volume was 0.013 ml serum per ml total solution. This mixture was incubated for five minutes at 37° C., after which time Ellman's Reagent was added at the standard concentration to eliminate clostripain as it quickly derivatizes all sulfhydryl groups in the mixture. From this point, the standard assay as described in Example 2 was followed.

Molecule	Ki (carboxypeptidase A (CPA))	CPA activities after activation, compared with trypsin [1]	CPA activity loss at supramaximal concentrations of activating protease ([1]; unlike trypsin)
O=C(O)CC(Cc1ccccc1)C(=O)O (racemic) [α-benzylsuccinic acid]	1000 nM and 1600 nM		
B1		significantly higher than the maximum values that could be obtained when using trypsin	only slight CPA activity losses
